# Measurements reported in publication PMC5709738 (The EMBO Journal, 2017).
# T1: full-length Ctf19-Mcm21 (K. lactis) (Kluyveromyces lactis, UniProt Q6CRN7 1-270; Q6CVQ9 1-293)
# T1 chain 1: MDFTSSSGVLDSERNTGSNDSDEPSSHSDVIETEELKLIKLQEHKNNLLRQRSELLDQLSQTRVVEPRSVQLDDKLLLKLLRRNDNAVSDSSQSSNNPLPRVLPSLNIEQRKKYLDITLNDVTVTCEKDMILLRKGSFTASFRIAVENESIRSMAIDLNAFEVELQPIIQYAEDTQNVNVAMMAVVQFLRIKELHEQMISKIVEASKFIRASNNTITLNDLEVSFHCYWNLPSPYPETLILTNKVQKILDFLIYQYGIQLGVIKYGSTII
# T1 chain 2: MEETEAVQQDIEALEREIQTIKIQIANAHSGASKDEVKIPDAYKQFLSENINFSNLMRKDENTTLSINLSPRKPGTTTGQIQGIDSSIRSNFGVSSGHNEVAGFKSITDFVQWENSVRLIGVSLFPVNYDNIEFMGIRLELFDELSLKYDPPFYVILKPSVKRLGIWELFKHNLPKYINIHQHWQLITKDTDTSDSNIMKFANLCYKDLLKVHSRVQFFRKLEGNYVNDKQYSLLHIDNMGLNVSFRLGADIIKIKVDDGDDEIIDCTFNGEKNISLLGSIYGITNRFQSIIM
# T2: full-length Ctf19-Mcm21 (K. lactis) (Kluyveromyces lactis, UniProt Q6CRN7 1-270; Q6CVQ9 1-293)
# T2 construct: Ctf19 of Kluyveromyces lactis; Mcm21 of Kluyveromyces lactis; for microscale thermophoresis it was labelled on lysine side chains with the red dye NT-647-NHS; also stands for the Ctf19-Mcm21 subassembly of COMA in nanoflow mass spectra; source: E. coli BL21 Rosetta 2(DE3)pLysS, co-expressed, purified
# T2 sequence (looked up) 1: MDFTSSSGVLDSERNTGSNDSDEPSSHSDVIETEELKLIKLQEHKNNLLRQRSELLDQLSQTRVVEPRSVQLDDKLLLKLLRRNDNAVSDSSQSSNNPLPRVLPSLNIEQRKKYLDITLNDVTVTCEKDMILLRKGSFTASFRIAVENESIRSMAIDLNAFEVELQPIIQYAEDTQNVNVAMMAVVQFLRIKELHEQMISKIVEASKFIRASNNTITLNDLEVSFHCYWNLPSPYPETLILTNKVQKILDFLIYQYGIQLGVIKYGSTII
# T2 sequence (looked up) 2: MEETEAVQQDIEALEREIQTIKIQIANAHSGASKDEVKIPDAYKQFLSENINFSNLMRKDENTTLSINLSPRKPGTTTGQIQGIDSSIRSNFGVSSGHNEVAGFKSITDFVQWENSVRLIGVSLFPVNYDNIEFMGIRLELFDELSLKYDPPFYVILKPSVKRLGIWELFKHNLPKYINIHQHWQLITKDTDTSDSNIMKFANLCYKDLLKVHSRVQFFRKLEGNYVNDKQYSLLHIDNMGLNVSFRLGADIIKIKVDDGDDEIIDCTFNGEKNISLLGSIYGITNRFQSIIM
# T3: Ame1-Okp1 (K. lactis, full length) (Kluyveromyces lactis, UniProt Q6CUE5 1-292; Q6CJY0 1-383)
# T3 construct: Ame1 of Kluyveromyces lactis; Okp1 of Kluyveromyces lactis; stands as the Ame1-Okp1 part of COMA; also called Okp1-Ame1; source: E. coli BL21 Rosetta 2(DE3)pLysS, co-expressed with Ctf19 and Mcm21 versions
# T3 sequence (looked up) 1: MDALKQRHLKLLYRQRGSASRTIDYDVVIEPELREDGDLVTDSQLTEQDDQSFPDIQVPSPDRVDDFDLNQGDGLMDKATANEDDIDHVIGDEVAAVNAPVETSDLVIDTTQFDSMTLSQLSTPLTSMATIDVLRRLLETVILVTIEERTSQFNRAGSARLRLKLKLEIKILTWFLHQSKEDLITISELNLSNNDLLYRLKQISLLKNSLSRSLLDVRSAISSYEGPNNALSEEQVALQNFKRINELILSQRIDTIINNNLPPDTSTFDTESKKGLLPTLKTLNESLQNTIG
# T3 sequence (looked up) 2: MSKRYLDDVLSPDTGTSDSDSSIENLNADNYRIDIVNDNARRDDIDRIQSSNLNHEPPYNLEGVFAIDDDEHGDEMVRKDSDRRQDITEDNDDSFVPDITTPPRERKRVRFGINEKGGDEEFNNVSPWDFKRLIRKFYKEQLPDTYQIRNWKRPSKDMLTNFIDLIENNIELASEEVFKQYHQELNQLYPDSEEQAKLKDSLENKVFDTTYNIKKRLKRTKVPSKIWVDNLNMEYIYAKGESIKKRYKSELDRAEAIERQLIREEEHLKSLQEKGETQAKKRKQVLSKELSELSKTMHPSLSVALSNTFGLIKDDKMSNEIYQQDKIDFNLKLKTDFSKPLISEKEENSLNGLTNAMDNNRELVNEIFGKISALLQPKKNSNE
# T4: COMA (K. lactis, full length: Ame1, Ctf19, Mcm21, Okp1) (Kluyveromyces lactis, UniProt Q6CUE5 1-292; Q6CRN7 1-270; Q6CVQ9 1-293; Q6CJY0 1-383)
# T4 construct: Ame1 of Kluyveromyces lactis; Ctf19 of Kluyveromyces lactis; Mcm21 of Kluyveromyces lactis; Okp1 of Kluyveromyces lactis; copies: + + +
# T4 sequence (looked up) 1: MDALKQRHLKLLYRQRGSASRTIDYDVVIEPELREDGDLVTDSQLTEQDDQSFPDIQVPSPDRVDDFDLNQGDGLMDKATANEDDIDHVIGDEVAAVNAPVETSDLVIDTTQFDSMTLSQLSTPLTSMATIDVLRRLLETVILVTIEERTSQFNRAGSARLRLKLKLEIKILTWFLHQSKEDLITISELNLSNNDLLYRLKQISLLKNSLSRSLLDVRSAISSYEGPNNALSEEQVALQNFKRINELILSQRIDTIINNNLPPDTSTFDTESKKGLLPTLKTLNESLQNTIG
# T4 sequence (looked up) 2: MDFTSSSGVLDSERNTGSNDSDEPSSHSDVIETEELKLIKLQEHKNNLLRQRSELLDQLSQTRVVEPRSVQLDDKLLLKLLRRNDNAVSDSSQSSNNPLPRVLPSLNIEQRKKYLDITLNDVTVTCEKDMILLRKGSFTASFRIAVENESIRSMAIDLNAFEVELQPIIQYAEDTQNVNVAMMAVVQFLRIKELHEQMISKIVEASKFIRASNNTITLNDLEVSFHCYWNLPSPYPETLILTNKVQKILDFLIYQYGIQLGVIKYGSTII
# T4 sequence (looked up) 3: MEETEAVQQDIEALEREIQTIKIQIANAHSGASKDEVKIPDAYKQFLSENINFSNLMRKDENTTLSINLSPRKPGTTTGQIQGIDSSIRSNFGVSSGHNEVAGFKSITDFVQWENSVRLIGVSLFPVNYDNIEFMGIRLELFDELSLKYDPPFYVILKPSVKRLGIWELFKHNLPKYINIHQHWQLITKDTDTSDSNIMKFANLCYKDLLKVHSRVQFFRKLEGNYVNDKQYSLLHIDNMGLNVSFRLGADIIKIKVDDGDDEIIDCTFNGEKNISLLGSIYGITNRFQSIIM
# T4 sequence (looked up) 4: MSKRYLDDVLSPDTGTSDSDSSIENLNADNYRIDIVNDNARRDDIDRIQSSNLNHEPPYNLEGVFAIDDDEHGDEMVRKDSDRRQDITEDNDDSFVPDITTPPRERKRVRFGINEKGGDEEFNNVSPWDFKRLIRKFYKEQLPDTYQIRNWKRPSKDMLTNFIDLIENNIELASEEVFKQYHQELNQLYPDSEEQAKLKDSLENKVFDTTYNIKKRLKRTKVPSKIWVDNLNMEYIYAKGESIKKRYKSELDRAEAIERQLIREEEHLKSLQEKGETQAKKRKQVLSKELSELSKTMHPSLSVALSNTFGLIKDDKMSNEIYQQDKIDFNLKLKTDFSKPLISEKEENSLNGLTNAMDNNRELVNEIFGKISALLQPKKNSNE
# T5: Okp1 (K. lactis, full length) (Kluyveromyces lactis, UniProt Q6CJY0 1-383)
# T5 construct: Okp1 (CENP-Q orthologue) of Kluyveromyces lactis; also called Okp1^CENP-Q; outer kinetochore protein 1; source: E. coli BL21 Rosetta 2(DE3)pLysS, co-expressed as COMA, purified
# T5 sequence (looked up): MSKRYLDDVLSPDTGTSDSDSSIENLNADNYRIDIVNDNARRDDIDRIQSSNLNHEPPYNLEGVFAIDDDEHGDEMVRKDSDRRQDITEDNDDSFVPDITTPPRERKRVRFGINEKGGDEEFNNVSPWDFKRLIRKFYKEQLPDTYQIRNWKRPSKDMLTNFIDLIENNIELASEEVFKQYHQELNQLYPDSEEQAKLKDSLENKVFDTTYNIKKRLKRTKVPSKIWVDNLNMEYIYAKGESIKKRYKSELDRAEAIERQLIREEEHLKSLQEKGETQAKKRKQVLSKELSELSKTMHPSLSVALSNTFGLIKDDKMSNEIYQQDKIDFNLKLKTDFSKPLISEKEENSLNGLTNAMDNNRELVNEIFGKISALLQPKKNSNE
# B1: Okp1 peptide variant N330A (peptide, UniProt Q6CJY0 318-337, looked up)
# peptide: SNEIYQQDKIDFALKLKTDF
# notes: source: synthetic peptide (Protein Chemistry core facility, IMP, Vienna)
# B2: Nkp1 (K. lactis) (natural protein, Kluyveromyces lactis, UniProt Q6CPR4 1-210, looked up)
# chain: MDLESEIIQLVRQNIRPKFPSLNDEQQARLDNALKYDVNYDILKKELVEYIDDWKRNEYYDVLTNIGDLQRLDLGNMLNGDGVSFPKLHSDLANLPRFRLIDNENEMDQSLLHKYDSLRTRLIEKCRAIELIRSATNTDVNYQDINSMLSVVELRQWRDEIQMEWKELAQNLELILKTWPDLTEEKRSKLLQLIDSSSLKSILHIKDNIE
# notes: Nkp1 of Kluyveromyces lactis; also called non-essential kinetochore protein 1; HisNkp1; source: E. coli BL21 Rosetta 2(DE3)pLysS, purified
# B3: COMA-Nkp1-Nkp2 (K. lactis, full length) (complex, Kluyveromyces lactis)
# chain 1: MDALKQRHLKLLYRQRGSASRTIDYDVVIEPELREDGDLVTDSQLTEQDDQSFPDIQVPSPDRVDDFDLNQGDGLMDKATANEDDIDHVIGDEVAAVNAPVETSDLVIDTTQFDSMTLSQLSTPLTSMATIDVLRRLLETVILVTIEERTSQFNRAGSARLRLKLKLEIKILTWFLHQSKEDLITISELNLSNNDLLYRLKQISLLKNSLSRSLLDVRSAISSYEGPNNALSEEQVALQNFKRINELILSQRIDTIINNNLPPDTSTFDTESKKGLLPTLKTLNESLQNTIG
# chain 2: MDFTSSSGVLDSERNTGSNDSDEPSSHSDVIETEELKLIKLQEHKNNLLRQRSELLDQLSQTRVVEPRSVQLDDKLLLKLLRRNDNAVSDSSQSSNNPLPRVLPSLNIEQRKKYLDITLNDVTVTCEKDMILLRKGSFTASFRIAVENESIRSMAIDLNAFEVELQPIIQYAEDTQNVNVAMMAVVQFLRIKELHEQMISKIVEASKFIRASNNTITLNDLEVSFHCYWNLPSPYPETLILTNKVQKILDFLIYQYGIQLGVIKYGSTII
# chain 3: MEETEAVQQDIEALEREIQTIKIQIANAHSGASKDEVKIPDAYKQFLSENINFSNLMRKDENTTLSINLSPRKPGTTTGQIQGIDSSIRSNFGVSSGHNEVAGFKSITDFVQWENSVRLIGVSLFPVNYDNIEFMGIRLELFDELSLKYDPPFYVILKPSVKRLGIWELFKHNLPKYINIHQHWQLITKDTDTSDSNIMKFANLCYKDLLKVHSRVQFFRKLEGNYVNDKQYSLLHIDNMGLNVSFRLGADIIKIKVDDGDDEIIDCTFNGEKNISLLGSIYGITNRFQSIIM
# chain 4: MSKRYLDDVLSPDTGTSDSDSSIENLNADNYRIDIVNDNARRDDIDRIQSSNLNHEPPYNLEGVFAIDDDEHGDEMVRKDSDRRQDITEDNDDSFVPDITTPPRERKRVRFGINEKGGDEEFNNVSPWDFKRLIRKFYKEQLPDTYQIRNWKRPSKDMLTNFIDLIENNIELASEEVFKQYHQELNQLYPDSEEQAKLKDSLENKVFDTTYNIKKRLKRTKVPSKIWVDNLNMEYIYAKGESIKKRYKSELDRAEAIERQLIREEEHLKSLQEKGETQAKKRKQVLSKELSELSKTMHPSLSVALSNTFGLIKDDKMSNEIYQQDKIDFNLKLKTDFSKPLISEKEENSLNGLTNAMDNNRELVNEIFGKISALLQPKKNSNE
# chain 5: MDLESEIIQLVRQNIRPKFPSLNDEQQARLDNALKYDVNYDILKKELVEYIDDWKRNEYYDVLTNIGDLQRLDLGNMLNGDGVSFPKLHSDLANLPRFRLIDNENEMDQSLLHKYDSLRTRLIEKCRAIELIRSATNTDVNYQDINSMLSVVELRQWRDEIQMEWKELAQNLELILKTWPDLTEEKRSKLLQLIDSSSLKSILHIKDNIE
# chain 6: MLHEVLYKHLDGILVSRLYTEDQFVDLFSRTIPESNTVIASQLYKSYEENDQRIIEKIDKLIDNKLSLIRVELEREQIEDSISLEEVNKLLHSIDDMLQQHLNQLNIELDNKNTKLLKYAMELSDIEAIDTSMYDNVAKLITDMETNQPSS
# notes: Ame1 of Kluyveromyces lactis; Ctf19 of Kluyveromyces lactis; Mcm21 of Kluyveromyces lactis; N-terminal SNA residual; Okp1 of Kluyveromyces lactis; Nkp1 of Kluyveromyces lactis; Nkp2 of Kluyveromyces lactis; source: E. coli BL21 Rosetta 2(DE3)pLysS, reconstituted, purified (SEC); not shown: polyhistidine, N-terminal, cleaved; copies: + + + + +
# Key:
# [1] = biological target: T1, full-length Ctf19-Mcm21 (K. lactis); experiment: MST
# [2] = biological target: T2, full-length Ctf19-Mcm21 (K. lactis); experiment: MST; Ctf19-Mcm21 labelled with NT-647-NHS on lysines, ~27 nM; dilution series of peptide; 22-25°C; ITC/MST buffer; three dilution series; details: both partners purified
# [3] = biological target: T3, Ame1-Okp1 (K. lactis, full length); experiment: native MS; nanoflow spectra and tandem mode with collision-induced dissociation in the gas phase (argon); subassemblies stripped of subunits; details: both partners purified
# [4] = biological target: T4, COMA (K. lactis, full length: Ame1, …); experiment: as above; details: both partners purified
# [5] = biological target: T5, Okp1 (K. lactis, full length); experiment: as above; details: both partners purified
# [6] = biological target: the molecule itself; experiment: native MS; nanoflow electrospray of intact assemblies in 200 mM ammonium acetate pH 6.7-7.3 or 7.4; higher micromolar concentrations (COMA ~3 or ~6 uM; COMA-Nkp1-Nkp2 ~3 uM)
binder,measurement,setting,value
SNEIYQQDKIDFNLPLKTDF (synthetic peptide; terminal chemistry not stated) [K332P],Kd,[1],9.75 µM
B1,Kd,[1],5.51 µM
same,binding result,[2],binds
B2,binding result,[3],binds
same,binding result,[4],binds
same,binding result,[5],binds
B3,stoichiometry N,[6],2
SNEIYQQDKIAANLKLKTDF (synthetic peptide; terminal chemistry not stated) [D328A-F329A],Kd,[1],64 µM
